Data on 5 molecules can be found in patent US20260242458A1 (NOVAROCK BIOTHERAPEUTICS, published 2026).

The term EC50 denotes the concentration at which the effect is half-maximal. The Kd is a measure of binding affinity in units of concentration. By koff is commonly meant the first-order rate constant of dissociation. By kon is commonly meant the second-order rate constant of association. One may read the EC50 (read off the curve) as the concentration at which the effect is half-maximal.

T1: recombinant mouse IL-25 protein (mouse, UniProt Q8VHH8 17-169)
T1 construct: Bought (Sino Biological Inc, catalog no: 50138-M07H)
T1 sequence: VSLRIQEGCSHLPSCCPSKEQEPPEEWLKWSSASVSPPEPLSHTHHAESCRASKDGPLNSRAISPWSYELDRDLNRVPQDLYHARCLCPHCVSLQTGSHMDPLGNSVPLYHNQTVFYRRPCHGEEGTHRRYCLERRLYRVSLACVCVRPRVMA

T2: recombinant cynomolgus IL-25 protein (cynomolgus monkey, UniProt Q9H293 33-177 (human entry), limits assumed)
T2 construct: Bought (Sino Biological Inc, customized order); also called cyno IL-25
T2 chain: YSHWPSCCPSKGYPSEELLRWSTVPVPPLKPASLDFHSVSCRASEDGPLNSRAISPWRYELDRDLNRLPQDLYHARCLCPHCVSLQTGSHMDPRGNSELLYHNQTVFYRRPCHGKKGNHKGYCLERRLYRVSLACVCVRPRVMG

T3: recombinant human IL-25 protein (human, UniProt Q9H293 33-177)
T3 construct: Bought (Acro, catalog no: IL5-H4221) for ELISA; also called hIL-25; IL-17E
T3 sequence: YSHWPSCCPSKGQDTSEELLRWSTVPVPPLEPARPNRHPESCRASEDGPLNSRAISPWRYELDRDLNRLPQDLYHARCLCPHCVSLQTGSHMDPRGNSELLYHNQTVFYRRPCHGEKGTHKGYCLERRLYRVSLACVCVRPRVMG

B1: IL25Ab3 (antibody, V domains shown)
VH: EVQLQQSGPELVKPGGSVRISCKASGYSFTGYTMNWVKQSHGKNLEWIGLINPDNGGTSHKQRFMGKATLTVDKSSSTAYMELLSLTSEDSAVYYCAREGYYGPSPFHHYAMDYWGQGTSVTVSS
VL: DIQMTQTTSSLSASLGDRVTISCSASQDISNYLNWYQQKPDGTIKLLIYYTSTLHSGVPSRFSGSGSGTDYSLTISNLEPEDIATYYCQQYSKLPYTFGGGTKLEIK
notes: detected with anti-human IgG or anti-human kappa reagents; also called anti-IL-25Ab3; mouse origin of anti-IL-25 specific antibody
B2: IL25Ab4 (antibody, V domains shown)
VH: QVTLKESGPGILQPSQTLSLTCSFSGFSLSTSGMGVSWIRQPSGKGLEWLAHIYWDDAKFYNPSLKSRVTISKDTSRNQVFLRITSVDTADIATYYCARRGYDNYGGFVDWGQGTLVTVSS
VL: ENVLIQSPAIMSASLGEKVTMSCRASSSVNYMYWYQQKSDAPPKLWIYYTSNLAPGVPGRFSGSGSGNSYSLTISSMEGEDAATYYCQQFTSYPYMYTFGGGTKLEIK
B3: IL25Ab5 (antibody, V domains shown)
VH: QVQLQQWGAGLLKPSETLSLTCAVYGGSFSAYYWSWIRQSPGKGLEWIGEINHGGNTNYSPSLKSRVTISVDTSKSQFSLKLSSVTAADTAAYYCARGPGITSWAFDFWDQGTMVTVSS
VL: DIQMTQSPSSLSASVGDRVTIACQASQDINNYLNWYQQKPGKAPKLLIYDASNLETGVPSRFSGNGSGTDFTFTISSLQPEDIATFYCQQYDTLPYTFGQGTKLEIR
B4: IL25Ab1 (antibody, V domains shown)
VH: QVQLKESGPGLVAPSQSLSITCTVSGFSLTDYGINWVRQPPGKGLEWLGMIWGDGVTHYNSVLKSRLSISKDNSMSQIFLKMNSLQTDDTARYYCARTLFYDGTLYYYAMDYWGQGTSVTVSS
VL: QIVLTQSPATMSASPGEKVTMTCSASSSVTYMYWYQQKTGSSPRLLIYDTPNLASGVPVRFSGSGSGTSYSLTISRVEAEDAATYYCQQWSSYPHTWTFGGGTKLEIK
B5: IL25Ab2 (antibody, V domains shown)
VH: QVTLKESGPGILQPSQTLSLTCSFSGFSLSTSGMGVGWIRQPSGKGLEWLAHIWWDDVKQYNPALQSRLTISKDTSSSQVFLKIASVDIADIATYYCARIGPVHHGFPYWGQGALVTVSS
VL: QIVLTQSPAIMSAFPGEKVTMSCSASSSVNYMYWHQQKPGSSPRLLIYDTSNLASGVPVRFSGSGSGTSYSLTISRMEAEDAATYYCQQWTSYPPMYTFGGGTKLEIK

One test addresses T1, recombinant mouse IL-25 protein. Description: ELISA, IL-25 coated, goat anti-human kappa light chain-HRP detection. The procedure:
(§1) In this study, the ability of three humanized anti-IL-25 antibodies generated in hIgG1 (IL25Ab6 to Ab8) and hIgG1 YTE formats (IL25Ab9 to Ab11) binding to both human, mouse and cynomolgus IL-25 was evaluated using ELISA. Briefly, recombinant human IL-25 protein (Acro, catalog no: IL5-H4221, lot no: 401-20CNF1-UT), recombinant mouse IL-25 protein (Sino Biological Inc, catalog no: 50138-M07H, lot no: LC15AP0607) or recombinant cynomolgus IL-25 protein (Sino Biological Inc, catalog no: customized order, lot no: MB17MA2715) was directly coated to ELISA plates, respectively. Recombinant antibodies were then added to the plates followed by detection using goat-anti-human Kappa Light Chain antibody HRP (Novus, catalog no: NBP1-75064, Lot no: 68-188-010920). After the addition of ABTS (Moss Inc., catalog no: ABTS-1000, Lot no: 03086202) substrate, ELISA plates were read using an ELISA plate reader (Bioteck).
B1: the EC50 came to 0.39 nM.

In another test the target is T2, recombinant cynomolgus IL-25 protein. Described as above. As for the experimental part: as §1
With B1, the EC50 turned out to be 0.364 nM.

In another test the target is T3, recombinant human IL-25 protein. Described as above. As for the experimental part: as §1
With B1, the EC50 turned out to be 0.506 nM.

The target is the same in the next test. Description: cell-based or functional assay.
For B1, the “IC50, IL-25 induced IL-5 production in human PBMC” value (shortened to “IC50 … in human PBMC”) is 0.16 nM.
B2: the “IC50 … in human PBMC” value stood at 0.15 nM.
In the case of B3, the “IC50 … in human PBMC” value is 0.26 nM.
As to B4, the “IC50 … in human PBMC” value is 0.12 nM.
With B5, the “IC50 … in human PBMC” value was determined as 0.14 nM.

Another test has the same target. Put plainly: cell-based or functional assay. This is another data set of the same source.
On to B1, for which the “IC50, IL-25 induced CXCL1 production in HT-29 cells” value (from here on “IC50 … in HT-29 cells”) turned out to be 0.067 nM.
As to B2, the “IC50 … in HT-29 cells” value amounted to 0.076 nM.
Still for that read-out and setting: for B3 the value was 0.077 nM.
As to B4, the “IC50 … in HT-29 cells” value stood at 0.071 nM.
On to B5, for which the “IC50 … in HT-29 cells” value worked out at 0.089 nM.

A further test has the same target. Put plainly: cell-based or functional assay. The source holds these as a separate data set.
For the molecule B1, the “IC50, IL-25 induced NF-kB signaling (SEAP) in HEK-Blue IL-17 reporter cells” value (“IC50, IL-25 induced NF-kB signaling” below) was 0.037 nM.

A further test shares this target. Put plainly: BLI (Octet), antibody captured on anti-human Fc biosensor, human IL-25 as analyte. As for the experimental part:
The binding kinetics of the disclosed anti-IL-25 antibodies to recombinant human IL-25 was determined by Octet® Bio-Layer Interferometry (BLI) systems by Sartorius. The assay uses anti-IL-25 monoclonal antibodies as the ligand and recombinant human IL-25 protein as the analyte.
Briefly, the assays were performed by first capturing 5 μg/ml of anti-IL-25 antibodies using anti-human Fc Octet biosensors. The mAb-captured biosensors were then submerged in wells containing serially diluted human IL-25 for 4-6 minutes, followed by a 10-15 minute dissociation time. The binding sensorgrams were collected and analyzed by the Octet Data Analysis software.
(In general: Biolayer interferometry detects binding as a change in optical thickness at a sensor tip.)
Regarding B1, the dissociation constant (Kd) is less than 0.001 nM, the koff is less than 1e-07 s⁻¹ and the kon stood at 875000 M⁻¹ s⁻¹.
Turning to B2, the Kd is less than 0.001 nM, the off-rate constant (koff) was less than 1e-07 s⁻¹ and the kon is 1.2e+06 M⁻¹ s⁻¹.
In the same order, the values of B3 are less than 0.001 nM, less than 1e-07 s⁻¹ and 2.48e+06 M⁻¹ s⁻¹.
In the same order, the values of B4 are less than 0.001 nM, less than 1e-07 s⁻¹ and 1.25e+06 M⁻¹ s⁻¹.
The corresponding values for B5 are less than 0.001 nM, less than 1e-07 s⁻¹ and 1.36e+06 M⁻¹ s⁻¹.

The target is the same in the next test. Put plainly: cell-based or functional assay. This is another data set of the same source.
With B1, the “IC50, IL-25 induced NF-kB signaling” value came to 0.049 nM.
The same measure, in the same setting: then B2, with 0.073 nM; and B3, with 0.061 nM.
On to B4, for which the “IC50, IL-25 induced NF-kB signaling” value worked out at 0.052 nM.
B5: the “IC50, IL-25 induced NF-kB signaling” value turned out to be 0.068 nM.

The next test has as its target T2, recombinant cynomolgus IL-25 protein. Put plainly: ELISA: recombinant cynomolgus IL-25 coated on the plate, detection with goat-anti-human Kappa Light Chain antibody HRP, ABTS, OD 405. As for the experimental part: as §1, with “another” for “this”, “five disclosed” for “three humanized”, “(IL25Ab1” for “generated in hIgG1 (IL25Ab6”, “Ab5)” for “Ab8) and hIgG1 YTE formats (IL25Ab9 to Ab11)”, “to” for “to both human, mouse and”, “401-20CNF1-UT)” for “401-20CNF1-UT), recombinant mouse IL-25 protein (Sino Biological Inc, catalog no: 50138-M07H, lot no: LC15AP0607)”
Turning to B1, the “EC50 (read off the curve)” value was approximately 0.1 nM.
The same measure, in the same setting: then B2, with approximately 0.1 nM; and B3, with approximately 0.2 nM.
As for B4, the “EC50 (read off the curve)” value is approximately 0.1 nM.
The same measure, in the same setting: for B5 the value was approximately 0.1 nM.

The target of the next test is T1, recombinant mouse IL-25 protein. Put plainly: ELISA, IL-25 coated, goat anti-human IgG-HRP detection. The procedure: (§2) In this study, the ability of five disclosed anti-IL-25 antibodies (IL25Ab1 to Ab5) binding to both human and mouse IL-25 was evaluated using ELISA. Briefly, recombinant human IL-25 protein (Acro, catalog no: IL5-H4221, lot no: 401-20CNF1-UT) or recombinant mouse IL-25 protein (Sino Biological Inc, catalog no: 50138-M07H, lot no: LC15AP0607) was directly coated to ELISA plates, respectively. Recombinant antibodies were then added to the plates followed by detection using goat-anti-human IgG-HRP (Jackson ImmunoResearch, catalog no: 109-035-098, Lot no: 157400). After the addition of ABTS (Moss Inc., catalog no: ABTS-1000, Lot no: 03086202) substrate, ELISA plates were read using an ELISA plate reader (Bioteck).
A general note: In an ELISA, binding on a coated surface is turned into a signal by an enzyme label.
Turning to B1, the EC50 came out at 0.013 nM.
For the molecule B2, the EC50 was 0.026 nM.
On the same count and under the same terms, for B3 the value was 0.035 nM; for B4, 0.015 nM; for B5, 0.012 nM.

The target of the next test is T3, recombinant human IL-25 protein. The description is as above. The procedure: as §2
In the case of B1, the EC50 came out at 0.022 nM.
For B2, the EC50 was 0.034 nM.
With B3, the 50% effective concentration (EC50) came out at 0.01 nM.
Turning to B4, the EC50 is 0.02 nM.
The same measure, in the same setting: then B5, with 0.017 nM.

For a further test the target is unchanged. Put plainly: cell-based or functional assay. This is another data set of the same source.
With B1, the “IC50 … in HT-29 cells” value was found to be 0.144 nM.

A further test shares this target. Description: cell-based or functional assay. The source holds these as a separate data set.
Consider B1, for which the “IC50 … in human PBMC” value turned out to be 0.302 nM.
